To fix the notation:
B1: Centrosome-associated zinc finger protein Cp190 (Drosophila melanogaster (Fruit fly)), Q24478 (parent)
chain: MGEVKSVKVDNWGVFFLQKLQNFFNKTDYCDLTLQFRDNSQLKVHRLVLSACTDYFNVLEQTCEIVDDALIMPNEFQADVVVPIVNFMYTGTLEFELKMYGKLLRTAKEMNMTVLLKLLEAHRRTMENVNRQQRPPSPKGIRRRTVGQPSSGLPQQRVLGPSPQSRNVATPIAQRANTQRGSTGNTMSRTSGGSNRSPYGDSSNVKQEPTSPFEQLRKGYNNNKRPAQTSLLSPPSKKPSLEEVKEFAEQQRMRKQIAAEYGDNDPEYDGGMLYDDVHAGDDDDDDMPPQPSTSKQQSPQGTQTQLEHGSTTIILKQDSPSQTPTIIVKDSSNAKLNHTKIIAEVLRQYPHIVKGHKNIKLKIMPNTPAAPTEKSAPATVKPPANQSSATTSPHKKLHVSFKADKSTPLITAQQKAASSQQKSGTSQTTGNQGTGANPPANTAAAQKRRIDSKTMHALIAQGAENTTGPWLCLRCGVNGRPISIPSYRGFRRHLINTHKETIDPALCEHCGWRSVNNRELHFHMYMEHQTKSLLYTFAECALCNQSYRTKGELEAHINEVHTDDNKQQCIYCNKVFEQELQLYRHMKSYHKEQALEDGIIDETDEEFLGSQDEEEEAEGDEEQEPEQTGKVRILSDISLPATSAITVQQAQQEQLQEEDVEQVQQEVKFVGADGNEVELTDEQRKEILSQLNQQQAGATAGGVVMVLSEPEAEHVKQETDEKSLAGTEEEYDDSQIYSELGAADSVESAKKNIADESKESIDNLEWAENLIAESEEQSNKEPKSDKPRDDISEKLKELTGDWTEDENDDDVDDKPATAELASELANKDPEPTVHEEEDDIDLALQSLHKGPEEATEEKASEESVTSADDAVDAVPNINSQPEKMDVDSEAADEKASKAEVQIKKEAELENDQEEFIKEDSPIPHSDSVAELREAVTASEGEDDVHLEADNIRKELLDELIAEAEKPDQEKDIVQSEENATTEALDRSVTDEDDLVPPTQVSTEQMEIDEPAAEKAAENNEDTRTADEKEAVEDKPNQTQDVTTAEKPTLESAKAGDEATSGEAASVDKVKSLISEWGDDDEDEDENGVSAAAKEEL
partner: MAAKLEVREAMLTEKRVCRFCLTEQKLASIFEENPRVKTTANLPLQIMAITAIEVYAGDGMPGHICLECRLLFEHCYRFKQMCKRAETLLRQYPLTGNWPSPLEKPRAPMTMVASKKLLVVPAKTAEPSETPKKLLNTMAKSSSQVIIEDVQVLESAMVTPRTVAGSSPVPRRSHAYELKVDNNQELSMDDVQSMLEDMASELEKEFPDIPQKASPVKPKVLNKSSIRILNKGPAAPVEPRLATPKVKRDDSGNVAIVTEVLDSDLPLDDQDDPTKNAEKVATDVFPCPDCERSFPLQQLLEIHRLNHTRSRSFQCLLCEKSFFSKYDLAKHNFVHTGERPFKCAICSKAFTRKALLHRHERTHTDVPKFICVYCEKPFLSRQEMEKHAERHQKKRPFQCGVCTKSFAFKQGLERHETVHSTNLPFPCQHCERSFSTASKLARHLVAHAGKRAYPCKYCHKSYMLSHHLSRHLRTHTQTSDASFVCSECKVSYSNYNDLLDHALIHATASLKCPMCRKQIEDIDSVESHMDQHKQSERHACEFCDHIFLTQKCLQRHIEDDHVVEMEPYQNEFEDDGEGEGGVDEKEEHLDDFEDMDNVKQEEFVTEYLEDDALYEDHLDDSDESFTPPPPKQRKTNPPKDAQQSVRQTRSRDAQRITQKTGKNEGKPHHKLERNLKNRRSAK
B2: Centrosome-associated zinc finger protein Cp190 (Drosophila melanogaster (Fruit fly)), Q24478 (parent)
chain: B1 chain
partner: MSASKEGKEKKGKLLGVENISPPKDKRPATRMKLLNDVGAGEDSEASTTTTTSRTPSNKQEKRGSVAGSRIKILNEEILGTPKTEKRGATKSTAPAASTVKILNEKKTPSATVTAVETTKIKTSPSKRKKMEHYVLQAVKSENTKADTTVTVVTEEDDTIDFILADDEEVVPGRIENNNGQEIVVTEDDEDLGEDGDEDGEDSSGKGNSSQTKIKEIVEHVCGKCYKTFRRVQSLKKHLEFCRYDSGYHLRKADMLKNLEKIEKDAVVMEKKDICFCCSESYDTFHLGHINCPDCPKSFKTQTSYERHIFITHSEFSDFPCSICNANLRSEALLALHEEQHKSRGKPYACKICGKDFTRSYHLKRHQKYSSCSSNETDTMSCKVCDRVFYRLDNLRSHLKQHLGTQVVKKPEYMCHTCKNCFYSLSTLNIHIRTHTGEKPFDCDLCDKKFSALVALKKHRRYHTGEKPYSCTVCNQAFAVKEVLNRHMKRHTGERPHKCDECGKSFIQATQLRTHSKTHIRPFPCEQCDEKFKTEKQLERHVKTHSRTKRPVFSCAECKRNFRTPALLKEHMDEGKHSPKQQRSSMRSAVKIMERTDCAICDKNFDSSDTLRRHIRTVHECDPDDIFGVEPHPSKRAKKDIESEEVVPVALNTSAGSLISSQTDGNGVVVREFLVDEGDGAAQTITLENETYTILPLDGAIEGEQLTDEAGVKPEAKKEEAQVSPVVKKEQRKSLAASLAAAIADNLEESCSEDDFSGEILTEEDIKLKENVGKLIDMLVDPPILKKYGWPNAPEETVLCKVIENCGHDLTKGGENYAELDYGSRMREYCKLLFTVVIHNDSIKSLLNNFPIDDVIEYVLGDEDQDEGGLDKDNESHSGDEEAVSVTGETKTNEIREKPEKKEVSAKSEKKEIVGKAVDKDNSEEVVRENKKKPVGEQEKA

One assay covers variants of B1. Particulars: with pita_drome pita.
As for K117S, the “effect of a mutation on the interaction” value is on record as “with no effect”.

On to K19A, for which the “effect of a mutation on the interaction” value is given as “with no effect”.

Turning to L118A, the “effect of a mutation on the interaction” value was “with no effect”.

Turning to V114N, the “effect of a mutation on the interaction” value was “with no effect”.

Consider V114A, for which the “effect of a mutation on the interaction” value is recorded as “with no effect”.

Turning to F15A, the “effect of a mutation on the interaction” value was “with no effect”.

The variants in another assay derive from B1. Particulars: with pita_drome pita. This is another data set of the same source.
As to K117S, the “effect of a mutation on the interaction” value is reported as “disrupting interaction strength”.

As to K19A, the “effect of a mutation on the interaction” value is “disrupting interaction strength”.

Consider V114N, for which the “effect of a mutation on the interaction” value is listed as “disrupting interaction strength”.

With V114A, the “effect of a mutation on the interaction” value is recorded as “disrupting interaction strength”.

As for F15A, the “effect of a mutation on the interaction” value is “disrupting interaction strength”.

In the next assay the parent is B1. Particulars: with pita_drome pita. This is another data set of the same source.
As to V7A, the “effect of a mutation on the interaction” value is “disrupting interaction strength”.

As for L118A, the “effect of a mutation on the interaction” value was “disrupting interaction strength”.

In another assay the parent is B1. To be noted: with pita_drome pita. The source holds these as a separate data set.
For V7A, the “effect of a mutation on the interaction” value was “with no effect”.

In the next assay the parent is B2. To be noted: with suhw_drome su(Hw).
In the case of K19A, the “effect of a mutation on the interaction” value was “with no effect”.

Consider V7A, for which the “effect of a mutation on the interaction” value was “with no effect”.

For K117S, the “effect of a mutation on the interaction” value is “with no effect”.

With V114N, the “effect of a mutation on the interaction” value is given as “with no effect”.

Consider V114A, for which the “effect of a mutation on the interaction” value is on record as “with no effect”.

The next assay covers variants of B2. To be noted: with suhw_drome su(Hw). The source holds these as a separate data set.
As to K19A, the “effect of a mutation on the interaction” value is on record as “disrupting interaction strength”.

As to F15A, the “effect of a mutation on the interaction” value is “disrupting interaction strength”.

L118A: the “effect of a mutation on the interaction” value is listed as “disrupting interaction strength”.

As for K117S, the “effect of a mutation on the interaction” value is “disrupting interaction strength”.

In the case of V114N, the “effect of a mutation on the interaction” value was “disrupting interaction strength”.

Regarding V114A, the “effect of a mutation on the interaction” value is reported as “disrupting interaction strength”.

Variants of B2 are the subject of the next assay. To be noted: with suhw_drome su(Hw). This is another data set of the same source.
F15A: the “effect of a mutation on the interaction” value is “with no effect”.

Regarding L118A, the “effect of a mutation on the interaction” value is given as “with no effect”.

The variants in another assay derive from B2. Particulars: with suhw_drome su(Hw). This is another data set of the same source.
In the case of V7A, the “effect of a mutation on the interaction” value is listed as “disrupting interaction strength”.

These data come from IntAct's records for PubMed 34830280.
